From patent publication US20200239541A1 (XYPHOS BIOSCIENCES, published 2020)

Experiments:
Test in all cases: ELISA, ligand-Fc coated, biotinylated NKG2D titrated
[1] = molecular target: T1, Y152A mutant NKG2D ectodomain (His-avitag, biotinylated) (human)
T1 construct: also called Y152A non-natural NKG2D receptor; not shown: N-terminal His-avitag
T1 chain: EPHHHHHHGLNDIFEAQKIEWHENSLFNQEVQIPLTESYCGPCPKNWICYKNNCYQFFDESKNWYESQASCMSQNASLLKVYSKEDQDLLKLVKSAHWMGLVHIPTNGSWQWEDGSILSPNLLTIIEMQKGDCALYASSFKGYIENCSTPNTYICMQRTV
Method: (§1) In addition to purifying the above 3 Fc-fusion proteins NKG2D ligand-Fc fusion proteins MICB-Fc, ULBP1-Fc, ULBP2-Fc, ULBP3-Fc, and ULBP4-Fc were purchased from R&D Systems, Inc. (Minneapolis, Minn.). Binding of the different α1-α2 domain-Fc fusions to both natural and non-natural NKG2D ectodomain proteins was analyzed using a plate-based ELISA method. All of the natural and non-natural α1-α2 domain-Fc fusions were coated overnight at 4° C. onto separate wells of Maxisorp 96 well plates using a coating concentration of 2 μg/ml in phosphate-buffered saline (PBS). The plates were washed 3-times in PBS/0.05% Tween20 at 20-22° C., and blocked with 0.5% bovine serum albumin for 2 hours. The biotinylated natural and non-natural NKG2D receptor proteins were titrated against the plate-bound NKG2D ligands for 2 hours at 20-22° C., washed 3 times with PBS/0.05% Tween20 at 20-22° C., and the bound NKG2D proteins subsequently detected using a streptavidin-HRP secondary detection step and developed with 1-Step Ultra TMB Elisa.

[2] = molecular target: T2, Y199A mutant NKG2D ectodomain (His-avitag, biotinylated) (human)
T2 construct: not shown: N-terminal His-avitag
T2 chain: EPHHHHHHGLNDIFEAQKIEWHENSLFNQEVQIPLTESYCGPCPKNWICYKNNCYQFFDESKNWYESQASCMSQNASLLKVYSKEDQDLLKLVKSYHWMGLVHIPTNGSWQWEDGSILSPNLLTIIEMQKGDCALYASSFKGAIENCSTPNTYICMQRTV
Method: as §1

[3] = molecular target: T3, double Y152A plus Y199A mutant NKG2D ectodomain (His-avitag, biotinylated) (human)
T3 construct: not shown: N-terminal His-avitag
T3 chain: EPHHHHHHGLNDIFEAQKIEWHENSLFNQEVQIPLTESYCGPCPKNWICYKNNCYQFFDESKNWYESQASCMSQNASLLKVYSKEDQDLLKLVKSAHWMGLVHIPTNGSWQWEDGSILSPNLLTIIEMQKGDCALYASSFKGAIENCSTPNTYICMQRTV
Method: as §1

Measured: binding result

B1: MICA-Fc (α1-α2-α3-Fc fusion, made in 293 cells) (Fc fusion)
chain: EPHSLRYNLTVLSWDGSVQSGFLTEVHLDGQPFLRCDRQKCRAKPQGQWAEDVLGNKTWDRETRDLTGNGKDLRMTLAHIKDQKEGLHSLQEIRVCEIHEDNSTRSSQHFYYDGELFLSQNLETKEWTMPQSSRAQTLAMNVRNFLKEDAMKTKTHYHAMHADCLQELRRYLKSGVVLRRTVPPMVNVTRSEASEGNITVTCRASGFYPWNITLSWRQDGVSLSHDTQQWGDVLPDGNGTYQTWVATRISQGEEQRFTCYMEHSGNHSTHPVPSGKIEGRMDPKSCDKTHTCPPCPAPELLGGPSVFLFPPKPKDTLMISRTPEVTCVVVDVSHEDPEVKFNWYVDGVEVHNAKTKPREEQYNSTYRVVSVLTVLHQDWLNGKEYKCKVSNKALPAPIEKTISKAKGQPREPQVYTLPPSRDELTKNQVSLTCLVKGF
no binding: all assays above
